Data: the supplement of paper PMC9732359
± gives the uncertainty stated by the source.

assay: protein stability index of a GFP-peptide fusion (yeast GPS) (PSI 1-4); higher = more stable; sorted into four equal gates, so the index is relative within each strain; details: pdr5∆
Procedure, shortened: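 Each library plasmid carries Cherry plus GFP with a tiled 17-residue yeast protein peptide fused downstream, and the pooled library was carried in yeast. Mid-log cultures in leucine-free medium were sorted into four equal gates by GFP/Cherry ratio. Reads from Illumina sequencing of PCR-amplified plasmids from each gate were assigned to strains by barcodes. Per peptide, the protein stability index was computed as the summed products of gate read frequency and gate number.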

In the case of YYLGQYYGCLENDHERG [CSN12], the protein stability index is reported as 2.85 ± 0.093.

same assay, conditions: san1∆

In order of rising protein stability index:
1. YRMKGGRVTFIPLNRLS [SMC3]  1.07 ± 0.24
2. YFNQLKPYYFSNNHKLS [RPN12]  1.19 ± 0.13
3. YWFPLAHFLSLSFTPTT [RPN2]  1.19 ± 0.076
4. YVERFETQLKVVTRSKE [SMC1]  1.26 ± 0.2
5. YEILLKILITYGSSPKL [SRB8]  1.35 ± 0.092
6. YKVLKNNGLPECQVIAA [YCG1]  1.35 ± 0.16
7. YKLSTVVLRLYLKDNIT [GRR1]  1.36 ± 0.081
8. YLKAFDKNKLLLLAAQI [SSN2]  1.36 ± 0.085
9. YLEELERKKQSDVLRFL [RPL15B]  1.44 ± 0.25
10. YLSDLKQFFQMTPLLVN [PCI8]  1.51 ± 0.066
11. YVRTEETDGKHGKRRSQ [YMR129W/POM152]  1.57 ± 0.11
12. YYKKFLIEPLPTESYLQ [BRR2]  1.78 ± 0.13
13. YKPGSITLENITRLCQT [MED1]  1.79 ± 0.046
14. YLKNVLFAFNGVARNFH [SIN4]  1.79 ± 0.064
15. YQELIKNGALVSNILSA [YJL039C/NUP192]  1.82 ± 0.075
16. YEHNGRTLEAITATLVG [CSL4]  1.83 ± 0.066
17. YGLFLKYHKEQFIKSNF [SRB8]  1.97 ± 0.069
18. YTDFENTFQKTVEPVYQ [FAS1]  2.03 ± 0.15
19. YFPEGYNNKVGVAASQG [SIR2]  2.04 ± 0.16
20. YLKFIPLKRAIWLIKCC [SRB8]  2.19 ± 0.16
21. YKVLKQTHPDTGISQKS [HTB1]  2.21 ± 0.081
22. YGPSFTKRESLNARMFL [SIR2]  2.22 ± 0.08
23. YNYCVNKSRSSGHFSTD [CDC53]  2.23 ± 0.049
24. YPEYDQITKFPKYRDNL [SSN3]  2.24 ± 0.12
25. YSSRVDSVTTETGKLLS [BRN1]  2.34 ± 0.21
26. YLHIRDKILQLNDRFQT [PGD1]  2.38 ± 0.053
27. YGGSRCANCVKERIIRA [RPL34A]  2.44 ± 0.082
28. YQTCKNSEYLKRRVTNL [SMC2]  2.44 ± 0.078
29. YWYWWKNGNEYNEFLYS [QCR8]  2.49 ± 0.06
30. YSSIPSLQDSIIKQENF [SSN2]  2.5 ± 0.086
31. YPPMPFDGFLFGSRVMI [FAS1]  2.53 ± 0.11
32. YPVLRKLYKKIAKFERS [YIL149C/MLP2]  2.56 ± 0.071
33. YLLPDDFHFSTDRITRL [BRN1]  2.6 ± 0.063
34. YKYGYDMPCDVLAKRMA [SCL1]  2.61 ± 0.073
35. YNSFPHSNLEKISNSKL [SIR4]  2.61 ± 0.043
36. YSTANEYIIAAIRKAPH [RPN3]  2.62 ± 0.042
37. YSPKQDEQKHNENENSR [RPO21]  2.63 ± 0.07
38. YISKAQNDQWSIQMEFM [SSN2]  2.71 ± 0.059
39. YNVKNIIQGRKNFDMLN [PCI8]  2.72 ± 0.039
40. YIQERLKSLNDIETQLC [MED11]  2.77 ± 0.1
41. YVKSLHKQISAEDLTIA [SIN4]  2.8 ± 0.2
42. YTQYTNDYLEKHSVTEY [CDC53]  2.81 ± 0.071
43. YKENEAMLRENIEVILS [SNF12]  2.84 ± 0.046
44. YYLGQYYGCLENDHERG [CSN12]  2.84 ± 0.06
45. YLIDHIKVEGAVGNLGN [RPL22A]  2.89 ± 0.092
46. YSSWSAQTIGRNSKTVR [PRE6]  2.91 ± 0.12
47. YKNEDVTALLEQGFKVV [YCS4]  2.93 ± 0.097
48. YITNADDSTKFQLVNDV [SIR3]  2.94 ± 0.092
49. YRAFGSIWQVKDQLPDL [MED7]  2.94 ± 0.09
50. YTMSNHGMSVDPRHIQL [RPO31]  2.94 ± 0.053
51. YFAKLREYLEEYKSLFV [RPP0]  2.98 ± 0.073
52. YIGEFEYIDDHRSGKIV [RPS22A]  2.99 ± 0.051
53. YLLISKENKKRKNFKMG [IRR1]  3.02 ± 0.06
54. YKKLDIDGKVIQAGKFD [SNF2]  3.06 ± 0.044
55. YPKLTLDFQTNKRLCDE [RPS17A]  3.06 ± 0.044
56. YYAHSIPSSKIDDFTTR [SNU114]  3.08 ± 0.067
57. YHNLTTHNSYEKACQVL [RPN6]  3.1 ± 0.063
58. YHSKRDASTPLRSTENG [RPB2]  3.12 ± 0.055
59. YLKHVSRRFKNGFQTGS [RPL37A]  3.16 ± 0.084
60. YPVVEVERGRVGACTDE [RRP43]  3.16 ± 0.23
61. YQNMAFITAKDKYKLYP [YJR042W/NUP85]  3.16 ± 0.076
62. YFQQTTIDWVEAGLQLC [PRP8]  3.2 ± 0.064
63. YNRRQDKKNKRLKFGHR [SNF2]  3.22 ± 0.093
64. YGDRMKLAKNLQIGDVV [RPO31]  3.34 ± 0.1
65. YLNLLQEDELDEGTALS [RPB10]  3.4 ± 0.11
66. YSILGDRFKYRSVDRAG [POP4]  3.45 ± 0.13

same assay, conditions: ubr1∆

In order of falling protein stability index:
1. YGDRMKLAKNLQIGDVV [RPO31]  3.57 ± 0.21
2. YLKHVSRRFKNGFQTGS [RPL37A]  3.46 ± 0.056
3. YHSKRDASTPLRSTENG [RPB2]  3.33 ± 0.05
4. YYAHSIPSSKIDDFTTR [SNU114]  3.32 ± 0.077
5. YRAFGSIWQVKDQLPDL [MED7]  3.29 ± 0.083
6. YFAKLREYLEEYKSLFV [RPP0]  3.24 ± 0.095
7. YITNADDSTKFQLVNDV [SIR3]  3.24 ± 0.071
8. YPKLTLDFQTNKRLCDE [RPS17A]  3.23 ± 0.059
9. YLIDHIKVEGAVGNLGN [RPL22A]  3.21 ± 0.11
10. YLNLLQEDELDEGTALS [RPB10]  3.18 ± 0.16
11. YTQYTNDYLEKHSVTEY [CDC53]  3.13 ± 0.092
12. YLLISKENKKRKNFKMG [IRR1]  3.11 ± 0.078
13. YNRRQDKKNKRLKFGHR [SNF2]  3.09 ± 0.095
14. YYLGQYYGCLENDHERG [CSN12]  3.06 ± 0.052
15. YFQQTTIDWVEAGLQLC [PRP8]  3.04 ± 0.1
16. YISKAQNDQWSIQMEFM [SSN2]  3.04 ± 0.053
17. YPVVEVERGRVGACTDE [RRP43]  3.03 ± 0.091
18. YIGEFEYIDDHRSGKIV [RPS22A]  3.01 ± 0.043
19. YTMSNHGMSVDPRHIQL [RPO31]  3.01 ± 0.044
20. YHNLTTHNSYEKACQVL [RPN6]  2.99 ± 0.037
21. YKKLDIDGKVIQAGKFD [SNF2]  2.99 ± 0.059
22. YPVLRKLYKKIAKFERS [YIL149C/MLP2]  2.88 ± 0.039
23. YQNMAFITAKDKYKLYP [YJR042W/NUP85]  2.88 ± 0.077
24. YSSWSAQTIGRNSKTVR [PRE6]  2.85 ± 0.098
25. YSLLLASKGIDRLSLQD [ECM29]  2.83 ± 0.11
26. YIQERLKSLNDIETQLC [MED11]  2.8 ± 0.07
27. YLLPDDFHFSTDRITRL [BRN1]  2.79 ± 0.048
28. YSSIPSLQDSIIKQENF [SSN2]  2.79 ± 0.14
29. YVKSLHKQISAEDLTIA [SIN4]  2.77 ± 0.085
30. YNSFPHSNLEKISNSKL [SIR4]  2.76 ± 0.048
31. YKNEDVTALLEQGFKVV [YCS4]  2.74 ± 0.091
32. YTDFENTFQKTVEPVYQ [FAS1]  2.73 ± 0.084
33. YSPKQDEQKHNENENSR [RPO21]  2.67 ± 0.056
34. YSTANEYIIAAIRKAPH [RPN3]  2.62 ± 0.047
35. YNVKNIIQGRKNFDMLN [PCI8]  2.58 ± 0.028
36. YWYWWKNGNEYNEFLYS [QCR8]  2.56 ± 0.047
37. YNYCVNKSRSSGHFSTD [CDC53]  2.54 ± 0.036
38. YPPMPFDGFLFGSRVMI [FAS1]  2.54 ± 0.048
39. YKENEAMLRENIEVILS [SNF12]  2.53 ± 0.057
40. YYKKFLIEPLPTESYLQ [BRR2]  2.48 ± 0.055
41. YQTCKNSEYLKRRVTNL [SMC2]  2.45 ± 0.073
42. YGLFLKYHKEQFIKSNF [SRB8]  2.36 ± 0.054
43. YKYGYDMPCDVLAKRMA [SCL1]  2.29 ± 0.058
44. YLHIRDKILQLNDRFQT [PGD1]  2.27 ± 0.038
45. YPEYDQITKFPKYRDNL [SSN3]  2.25 ± 0.047
46. YLKFIPLKRAIWLIKCC [SRB8]  2.16 ± 0.057
47. YLKNVLFAFNGVARNFH [SIN4]  2.15 ± 0.063
48. YSSRVDSVTTETGKLLS [BRN1]  2.11 ± 0.18
49. YVERFETQLKVVTRSKE [SMC1]  2.11 ± 0.051
50. YQELIKNGALVSNILSA [YJL039C/NUP192]  2.09 ± 0.062
51. YEHNGRTLEAITATLVG [CSL4]  2.04 ± 0.038
52. YVRTEETDGKHGKRRSQ [YMR129W/POM152]  2 ± 0.053
53. YKPGSITLENITRLCQT [MED1]  1.99 ± 0.032
54. YKVLKNNGLPECQVIAA [YCG1]  1.95 ± 0.062
55. YFPEGYNNKVGVAASQG [SIR2]  1.81 ± 0.062
56. YKLSTVVLRLYLKDNIT [GRR1]  1.68 ± 0.068
57. YKVLKQTHPDTGISQKS [HTB1]  1.68 ± 0.04
58. YGPSFTKRESLNARMFL [SIR2]  1.65 ± 0.036
59. YGGSRCANCVKERIIRA [RPL34A]  1.57 ± 0.065
60. YLEELERKKQSDVLRFL [RPL15B]  1.54 ± 0.1
61. YLSDLKQFFQMTPLLVN [PCI8]  1.51 ± 0.026
62. YEILLKILITYGSSPKL [SRB8]  1.47 ± 0.055
63. YLKAFDKNKLLLLAAQI [SSN2]  1.42 ± 0.045
64. YRMKGGRVTFIPLNRLS [SMC3]  1.36 ± 0.13
65. YFNQLKPYYFSNNHKLS [RPN12]  1.24 ± 0.04
66. YIWRYLPAPPVCIRPSV [RPO31]  1.2 ± 0.23
67. YWFPLAHFLSLSFTPTT [RPN2]  1.19 ± 0.028
